Target: EnvZ(C)(223-289) (Escherichia coli)

EnvZ(C)(290-450) (enzyme)
trans-autophosphorylation of sub-domain A with [gamma-32P]ATP, autoradiography: 5%
